Assay results published in patent publication US20230295308A1, “ANTAGONISTIC BIPARATOPIC ANTIBODIES THAT SPECIFICALLY BIND FIBROBLAST GROWTH FACTOR RECEPTOR 2 AND METHODS OF USING SAME” (The Broad Institute, Inc., priority 2020, published 2023).
Entries after “also recorded” stand apart in the source; their conditions may differ.

Legend:
[1] = system: FGFR2-fusion transformed BaF3 cells; test: viability assay of BaF3 cells expressing FGFR2 fusions (FIG. 2); type: cell-based
Source text: A table showing IC50 (μM) is also provided.
(§1) NIH3T3 cells transformed with FGFR2-BICC1, FGFR2-AHCYL1, and FGFR2-PHGDH fusions were also sensitive to BGJ398 treatment (FIG. 5).

[2] = system: NIH3T3 cells transformed with FGFR2-BICC1, FGFR2-AHCYL1, and FGFR2-PHGDH fusions; test: growth of NIH3T3 cells transformed with FGFR2 fusions (FIG. 5); type: cell-based
Source text: as §1

[3] = system: FGFR2 fusion-positive ICC; conditions: phase II trial; cited from earlier work
[4] = system: NIH3T3 cells overexpressing FGFR2-BICC1 fusion; test: NIH3T3 FGFR2-BICC1 cell confluency, Incucyte (FIGS. 19A-19E); type: cell-based; conditions: 60 hours, 0.013-1 μM
Procedure: FIGS. 19A-19E present graphs showing the ability of biparatopic antibodies to impact FGFR2-fusion driven cell growth in NIH3T3 cells molecularly engineered to overexpress FGFR2-BICC1 fusion. […] The nomenclature of the biparatopic antibodies is based on the designations and descriptions of the parental antibodies presented in FIG. 7B.
(§2) The impact of biparatopic antibodies on FGFR2-fusion driven cell growth was assessed in a cell-based assay using biparatopic antibodies that bind to the ECD of FGFR2 and generated as described supra (Example 4). As described herein, the biparatopic antibodies were added to cultures of cells (e.g., NIH3T3 cells or BaF3 cells) molecularly engineered to overexpress FGFR2 fusion.
For assays using NIH3T3 cells, (FIGS. 19A-19E), NIH3T3 cells overexpressing a FGFR2-BICC1 fusion construct were plated in 384 black well plates at a concentration of 1000 cells/well overnight. 6 parental antibodies and 13 biparatopic antibodies were added to each well in duplicates at various concentrations ranging from 1 μM to 0.013 μM (1 μM, 0.833 μM, 0.600 μM, 0.450 μM, 0.316 μM, 0.233 μM, 0.166 μM, 0.125 μM, 0.091 μM, 0.066 μM, 0.048 μM, 0.035 μM, 0.025 μM, 0.018 μM, and 0.013 μM). The cell confluency was measured using Incucyte at 60 hours post treatment, and the IC50 curves were generated using non-linear fit in PRISM 9 software.

[5] = target: FGFR2b alpha IIIb antigen (UniProt P21802); test: SPR (Biacore), antibody immobilized, FGFR2b alpha IIIb in flow
[6] = system: BaF3 cells overexpressing FGFR2-PHGDH fusion; test: BaF3 FGFR2-PHGDH cell survival, CellTiter-Glo (FIGS. 18A-18D); type: cell-based; conditions: no IL3, no FGF, 5 days, 0.013-1 μM
Source text: FIGS. 18A-18D present graphs showing the ability of biparatopic antibodies to impact FGFR2-fusion driven cell growth in BaF3 cells molecularly engineered to overexpress FGFR2-PHGDH fusion. […] These biparatopic antibodies were also more efficient at inhibiting growth of BaF3 cells overexpressing the FGFR2-PHGDH fusion compared to their parental antibodies. The nomenclature of the biparatopic antibodies is based on the designations and descriptions of the parental antibodies presented in FIG. 7B.
as §2
In particular, for assays using BaF3 cells (FIGS. 18A-18D), BaF3 cells overexpressing empty vector control or FGFR2-PHGDH fusion construct were plated in the absence of IL3 and FGF in 384 black well plates at a concentration of 750 cells/well overnight. […] The cell survival was measured using CellTiter-Glo at 5 days post treatment and the IC50 curves were generated using non-linear fit in PRISM 9 software. […]

[7] = target: FGFR2b alpha IIIb antigen (UniProt P21802); test: SPR (Biacore), KD matrix by the two arms; unit M from FIG. 17B and paragraph 180; FIG. 17B prints 9.1E-10 for the same antibody

CCN1CCN(c2ccc(Nc3cc(N(C)C(=O)Nc4c(Cl)c(OC)cc(OC)c4Cl)ncn3)cc2)CC1 [NVP-BGJ398]
sensitivity of FGFR2-fusion transformed BaF3 cells (viability) [1]: sensitive; also recorded: showed sensitivity | sensitivity of NIH3T3 cells transformed with FGFR2 fusions [2]: sensitive | efficacy in patients with FGFR2 fusion-positive ICC [3]: encouraging efficacy

B1: Biparatopic antibody B/N12 (bispecific antibody, V domains shown)
VH 1: EVQLLESGGGLVQPGGSLRLSCAASGFTFSSYAMSWVRQAPGKGLEWVSAISGSGTSTYYADSVKGRFTISRDNSKNTLYLQMNSLRAEDTAVYYCARVRYNWNHGDWFDPWGQGTLVTVSS
VL 1: QSVLTQPPSASGTPGQRVTISCSGSSSNIGNNYVSWYQQLPGTAPKLLIYENYNRPAGVPDRFSGSKSGTSASLAISGLRSEDEADYYCSSWDDSLNYWVFGGGTKLTVLG
VH 2: QVQLVQSGAEVKKPGESLKISCKGSGYSFTNYYIHWVRQMPGKGLEWMGAIYPDNSDTTYSPSFQGQVTISADKSISTAYLQWSSLKASDTAMYYCARGADIWGQGTLVTVSS
VL 2: DIQMTQSPSSLSASVGDRVTITCRASQDIDPYLSNWYQQKPGKAPKLLIYDASNLQSGVPSRFSGSGSGTDFTLTISSLQPEDFATYYCQQTTSHPYTFGQGTKVEIK
inhibition of growth of NIH3T3 cells overexpressing FGFR2-BICC1 compared to parental antibodies [4]: more efficient and potent; also recorded: more effective and potent | Binding Stoichiometry [5]: 1.3 | Kd [5]: 0.91 nM | inhibition of growth of BaF3 cells overexpressing FGFR2-PHGDH compared to control cells overexpressing empty vector [6]: more efficient and potent; also recorded: more effective and potent | Kd [7]: 0.82 nM
